Test results from paper PMC13708078, “Development of a GRPR-Targeted ^99mTc/^188Re Theranostic Pair Based on NOTA-P2-RM26” (Pharmaceutics, 2026).

Test: in vivo
Design: species or system mice
Details: female, Swiss Albino SCID, mouse, iv, total radioactivity
Description: PC-3 xenografts were established in female Swiss Albino SCID mice, aged 7–8 weeks. After acclimatization, animals were injected subcutaneously into the right shoulder/upper-flank region with freshly harvested PC-3 cells suspended in PBS. Each animal received 5 × 10^6 cells. Tumors were allowed to grow for approximately three weeks until palpable solid tumors were formed. At the time of the experiments, tumor volumes ranged from 200 to 400 mm^3. Animals were then randomly assigned to experimental groups.
Biodistribution studies were performed at 30 min and 1 h post injection (p.i.). […] The injected volume was 100 μL, and the injected activity was approximately 100 kBq per animal. Animals weighed 21 ± 2 g on the day of the experiment. For in vivo blocking studies, a separate group of animals received non-radioactive NOTA-P2-RM26 (50 μg) 5 min prior to the radiotracer injection. Blocking animals were euthanized at 1 h p.i. At the selected time points, animals were euthanized. Blood, tumors, organs, and tissues of interest were collected, weighed, and measured for radioactivity using the gamma counter. The stomach and intestines were measured without content. […] Data were decay-corrected and expressed as a percentage of injected activity per gram of tissue (%IA/g). Urine/bladder and gastrointestinal/fecal content were expressed as a percentage of injected activity (%IA).

CC(C)C[C@H](NC(=O)C[C@H](O)[C@H](CC(C)C)NC(=O)[C@H](Cc1c[nH]cn1)NC(=O)CNC(=O)[C@@H](NC(=O)[C@H](C)NC(=O)[C@H](Cc1c[nH]c2ccccc12)NC(=O)[C@H](CCC(N)=O)NC(=O)[C@@H](Cc1ccccc1)NC(=O)COCCOCCNC(=O)CN1CCN(CC(=O)O)CCN(CC(=O)O)CC1)C(C)C)C(N)=O [^99mTc2, fac-[^99mTc][Tc(CO)3(NOTA-P2-RM26)], metal not drawn]
tissue uptake at 1 h (bone uptake): 0.18 ± 0.07 %ID/g
tissue uptake at 1 h (pancreatic uptake): 3 ± 0.35 %ID/g
